According to patent US7094554:

Experiments:
[1] = target: P. gossypiella (pink bollworm) midgut brush border membrane vesicle (BBMV) proteins (Pectinophora gossypiella); experiment: homologous competition, 125I-Cry1Aa against unlabeled Cry1Aa on BBMV
[2] = target: P. gossypiella (pink bollworm) midgut brush border membrane vesicle (BBMV) proteins (Pectinophora gossypiella); experiment: competition with 125I-Cry1Ac on BBMV, 1000 nM unlabeled toxin
[3] = target: P. gossypiella (pink bollworm) midgut brush border membrane vesicle (BBMV) proteins (Pectinophora gossypiella); experiment: saturation binding, fixed 125I-toxin with increasing BBMV
[4] = target: P. gossypiella (pink bollworm) midgut brush border membrane vesicle (BBMV) proteins (Pectinophora gossypiella); experiment: competition with 125I-Cry1Ac on BBMV
[5] = target: P. gossypiella (pink bollworm) midgut brush border membrane vesicle (BBMV) proteins (Pectinophora gossypiella); experiment: homologous competition assay, 125I-toxin on BBMV
[6] = target: P. gossypiella (pink bollworm) midgut brush border membrane vesicle (BBMV) proteins (Pectinophora gossypiella); experiment: homologous competition, 125I-Cry1Ab against unlabeled Cry1Ab on BBMV
[7] = target: P. gossypiella (pink bollworm) midgut brush border membrane vesicle (BBMV) proteins (Pectinophora gossypiella); experiment: homologous competition, 125I-Cry1Ac against unlabeled Cry1Ac on BBMV

Substance | IC50 [1] | percent reduction of 125I-Cry1Ac binding at 1000 nM [2] | maximum saturable binding at 400 µg/ml of BBMV [3] | IC50 [4] | Kd [5] | concentration of binding sites (Bmax) [5] | IC50 [6] | fold difference in binding compared to Cry1Ab [3] | fold higher binding compared to Cry1Aa [3] | IC50 [7]
Cry1Aa toxin (trypsinized 60 kD toxin) (from UniProt P0A366 29-619) (ligand) | 10 nM | 80% | 0.35 ng | 100 nM | 16.5 nM | 3.7 pmol/mg | – | – | – | –
Cry1Ab toxin (trypsinized 60 kD toxin) (from UniProt P0A370 29-620) (ligand) | – | 82% | 0.05 ng | 100 nM | 12.4 nM | 3.6 pmol/mg | 10 nM | – | – | –
Cry1Ac toxin (trypsinized 60 kD toxin) (from UniProt P05068 29-623) (ligand) | – | 95% | 1.5 ng | 10 nM | 12.8 nM | 8.6 pmol/mg | – | 30 fold | 4 fold | 10 nM
